Reference: patent publication US20260193342A1 (ZOETIS SERVICES, published 2026)
Changes are numbered by the printed parent chain. Numbers in names are those of the source.

B1: mAb1, caninized anti-IL31 antibody 34D03, canine IgGD, WT (antibody)
heavy: EVQLVESGGDLVKPGGSLRLSCVASGFTFSNYGMSWVRQAPGKGLQWVATISYGGSYTYYPDNIKGRFTISRDNAKNTLYLQMNSLRAEDTAMYYCVRGYGYDTMDYWGQGTLVTVSSASTTAPSVFPLAPSCGSTSGSTVALACLVSGYFPEPVTVSWNSGSLTSGVHTFPSVLQSSGLYSLSSTVTVPSSRWPSETFTCNVVHPASNTKVDKPVPKESTCKCISPCPVPESLGGPSVFIFPPKPKDILRITRTPEITCVVLDLGREDPEVQISWFVDGKEVHTAKTQPREQQFNSTYRVVSVLPIEHQDWLTGKEFKCRVNHIGLPSPIERTISKARGQAHQPSVYVLPPSPKELSSSDTVTLTCLIKDFFPPEIDVEWQSNGQPEPESKYHTTAPQLDEDGSYFLYSKLSVDKSRWQQGDTFTCAVMHEALQNHYTDLSLSHSPGK
VL: EIVMTQSPASLSLSQEEKVTITCKASQSVSFAGTGLMHWYQQKPGQAPKLLIYRASNLEAGVPSRFSGSGSGTDFSFTISSLEPEDVAVYYCQQSREYPWTFGQGTKLEIK
notes: VH/VL: the caninized 34D03 entries of the listing; also called ID No. 37
B2: mAb1, caninized anti-IL31 antibody 34D03, canine IgGC, N434H (antibody)
chain 1: EVQLVESGGDLVKPGGSLRLSCVASGFTFSNYGMSWVRQAPGKGLQWVATISYGGSYTYYPDNIKGRFTISRDNAKNTLYLQMNSLRAEDTAMYYCVRGYGYDTMDYWGQGTLVTVSSASTTAPSVFPLAPSCGSQSGSTVALACLVSGYIPEPVTVSWNSVSLTSGVHTFPSVLQSSGLYSLSSMVTVPSSRWPSETFTCNVAHPATNTKVDKPVAKECECKCNCNNCPCPGCGLLGGPSVFIFPPKPKDILVTARTPTVTCVVVDLDPENPEVQISWFVDSKQVQTANTQPREEQSNGTYRVVSVLPIGHQDWLSGKQFKCKVNNKALPSPIEEIISKTPGQAHQPNVYVLPPSRDEMSKNTVTLTCLVKDFFPPEIDVEWQSNGQQEPESKYRMTPPQLDEDGSYFLYSKLSVDKSRWQRGDTFICAVMHEALHHHYTQISLSHSPGK
chain 2: EIVMTQSPASLSLSQEEKVTITCKASQSVSFAGTGLMHWYQQKPGQAPKLLIYRASNLEAGVPSRFSGSGSGTDFSFTISSLEPEDVAVYYCQQSREYPWTFGQGTKLEIKRNDAQPAVYLFQPSPDQLHTGSASVVCLLNSFYPKDINVKWKVDGVIQDTGIQESVTEQDKDSTYSLSSTLTMSSTEYLSHELYSCEITHKSLPSTLIKSFQRSEC
B3: mAb1, caninized anti-IL31 antibody 34D03, canine IgGD, N434H (antibody)
chain 1: B1 heavy with N436H
chain 2: B2 chain 2
B4: mAb2 of Table 4A, caninized anti-NGF antibody ZTS-841, canine IgGA, N434W (antibody)
heavy: EVQLVESGGDLVKPGGSLRLSCVASGFTFSSHGMHWVRQSPGKGLQWVAVINSGGSSTYYTDAVKGRFTISRDNAKNTVYLQMNSLRAEDTAMYYCAKESVGGWEQLVGPHFDYWGQGTLVIVSSASTTAPSVFPLAPSCGSTSGSTVALACLVSGYFPEPVTVSWNSGSLTSGVHTFPSVLQSSGLHSLSSMVTVPSSRWPSETFTCNVVHPASNTKVDKPVFNECRCTDTPPCPVPEPLGGPSVLIFPPKPKDILRITRTPEVTCVVLDLGREDPEVQISWFVDGKEVHTAKTQSREQQFNGTYRVVSVLPIEHQDWLTGKEFKCRVNHIDLPSPIERTISKARGRAHKPSVYVLPPSPKELSSSDTVSITCLIKDFYPPDIDVEWQSNGQQEPERKHRMTPPQLDEDGSYFLYSKLSVDKSRWQQGDPFTCAVMHETLQWHYTDLSLSHSPGK
VL: QSVLTQPTSVSGSLGQRVTISCSGSTNNIGILGASWYQLFPGKAPKLLVYGNGNRPSGVPDRFSGADSGDSVTLTITGLQAEDEADYYCQSFDTTLGAHVFGGGTHLTVL
notes: also called ID No. 44
B5: mAb2 of Table 4A, caninized anti-NGF antibody ZTS-841, canine IgGC, N434H (antibody)
heavy: EVQLVESGGDLVKPGGSLRLSCVASGFTFSSHGMHWVRQSPGKGLQWVAVINSGGSSTYYTDAVKGRFTISRDNAKNTVYLQMNSLRAEDTAMYYCAKESVGGWEQLVGPHFDYWGQGTLVIVSSASTTAPSVFPLAPSCGSQSGSTVALACLVSGYIPEPVTVSWNSVSLTSGVHTFPSVLQSSGLYSLSSMVTVPSSRWPSETFTCNVAHPATNTKVDKPVAKECECKCNCNNCPCPGCGLLGGPSVFIFPPKPKDILVTARTPTVTCVVVDLDPENPEVQISWFVDSKQVQTANTQPREEQSNGTYRVVSVLPIGHQDWLSGKQFKCKVNNKALPSPIEEIISKTPGQAHQPNVYVLPPSRDEMSKNTVTLTCLVKDFFPPEIDVEWQSNGQQEPESKYRMTPPQLDEDGSYFLYSKLSVDKSRWQRGDTFICAVMHEALHHHYTQISLSHSPGK
VL: B4 VL
notes: also called ID No. 54
B6: mAb2 of Table 4A, caninized anti-NGF antibody ZTS-841, canine IgGD, N434H (antibody)
heavy: EVQLVESGGDLVKPGGSLRLSCVASGFTFSSHGMHWVRQSPGKGLQWVAVINSGGSSTYYTDAVKGRFTISRDNAKNTVYLQMNSLRAEDTAMYYCAKESVGGWEQLVGPHFDYWGQGTLVIVSSASTTAPSVFPLAPSCGSTSGSTVALACLVSGYFPEPVTVSWNSGSLTSGVHTFPSVLQSSGLYSLSSTVTVPSSRWPSETFTCNVVHPASNTKVDKPVPKESTCKCISPCPVPESLGGPSVFIFPPKPKDILRITRTPEITCVVLDLGREDPEVQISWFVDGKEVHTAKTQPREQQFNSTYRVVSVLPIEHQDWLTGKEFKCRVNHIGLPSPIERTISKARGQAHQPSVYVLPPSPKELSSSDTVTLTCLIKDFFPPEIDVEWQSNGQPEPESKYHTTAPQLDEDGSYFLYSKLSVDKSRWQQGDTFTCAVMHEALQHHYTDLSLSHSPGK
VL: B4 VL
notes: also called ID No. 56
B7: mAb2 of Table 4A, caninized anti-NGF antibody ZTS-841, canine IgGD, WT (antibody)
heavy: B6 heavy with H443N
VL: B4 VL
notes: also called ID No. 55

These binders were tested against T1, canine FcRn complex (FcRn-α subunit and β-microglobulin) (canine, UniProt A0A8I3PFR8 25-347, biotin on the BAP tag by BirA (Example 5 only)) (assay: SPR (Biacore), biotinylated FcRn on SA chip, IgG flowed, pH 6, 15 C).
T1 sequence (A0A8I3PFR8 entry or part of it, one chain of several): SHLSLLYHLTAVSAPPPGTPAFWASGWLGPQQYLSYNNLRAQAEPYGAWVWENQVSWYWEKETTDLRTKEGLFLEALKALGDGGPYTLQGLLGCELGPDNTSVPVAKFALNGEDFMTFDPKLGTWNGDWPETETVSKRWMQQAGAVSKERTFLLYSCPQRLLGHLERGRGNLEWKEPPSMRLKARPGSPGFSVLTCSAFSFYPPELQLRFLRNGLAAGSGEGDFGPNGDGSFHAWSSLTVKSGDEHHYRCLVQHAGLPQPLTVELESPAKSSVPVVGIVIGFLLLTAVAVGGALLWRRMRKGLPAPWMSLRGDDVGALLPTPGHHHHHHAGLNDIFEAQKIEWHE

Kd [nM] | Binder
34.5 | B1
87.9 | B2
3.21 | B3
10.6 | B4
20.4 | B5
12 | B6
71 | B7

What follows are binders tested against T1, canine FcRn complex (FcRn-α subunit and …) (assay: SPR (Biacore), biotinylated FcRn on SA chip, IgG flowed, pH 7.4, 15 C).

Kd [nM] | Binder
1520 | B4
